According to patent US11471462B2, “Compositions and methods for detecting and treating diabetes” (THE BROAD INSTITUTE, INC., priority 2016, dated 2022):

B1: DHCR7 (protein)
chain: MAAKSQPNIPKAKSLDGVTNDRTASQGQWGRAWEVDWFSLASVIFLLLFAPFIVYYFIMACDQYSCALTGPVVDIVTGHARLSDIWAKTPPITRKAAQLYTLWVTFQVLLYTSLPDFCHKFLPGYVGGIQEGAVTPAGVVNKYQINGLQAWLLTHLLWFANAHLLSWFSPTIIFDNWIPLLWCANILGYAVSTFAMVKGYFFPTSARDCKFTGNFFYNYMMGIEFNPRIGKWFDFKLFFNGRPGIVAWTLINLSFAAKQRELHSHVTNAMVLVNVLQAIYVIDFFWNETWYLKTIDICHDHFGWYLGWGDCVWLPYLYTLQGLYLVYHPVQLSTPHAVGVLLLGLVGYYIFRVANHQKDLFRRTDGRCLIWGRKPKVIECSYTSADGQRHHSKLLVSGFWGVARHFNYVGDLMGSLAYCLACGGGHLLPYFYIIYMAILLTHRCLRDEHRCASKYGRDWERYTAAVPYRLLPGIF
B2: DNAJC7 (protein)
chain: AAAAECDVVMAATEPELLDDQEAKREAETFKEQGNAYYAKKDYNEAYNYYTKAIDMCPKNASYYGNRAATLMMLGRFREALGDAQQSVRLDDSFVRGHLREGKCHLSLGNAMAACRSFQRALELDHKNAQAQQEFKNANAVMEYEKIAETDFEKRDFRKVVFCMDRALEFAPACHRFKILKAECLAMLGRYPEAQSVASDILRMDSTNADALYVRGLCLYYEDCIEKAVQFFVQALRMAPDHEKACIACRNAKALKAKKEDGNKAFKEGNYKLAYELYTEALGIDPNNIKTNAKLYCNRGTVNSKLRKLDDAIEDCTNAVKLDDTYIKAYLRRAQCYMDTEQYEEAVRDYEKVYQTEKTKEHKQLLKNAQLELKKSKRKDYYKILGVDKNASEDEIKKAYRKRALMHHPDRHSGASAEVQKEEEKKFKEVGEAFTILSDPKKKTRYDSGQDLDEEGMNMGDFDPNNIFKAFFGGPGGFSFEASGPGNFFFQFG
B3: SEC61A1 (protein)
chain: MTQTARVLVKFLEVIKPFCVILPEIQKPERKIQFKEKVLWTAITLFIFLVCCQIPLFGIMSSDSADPFYWMRVILASNRGTLMELGISPIVTSGLIMQLLAGAKIIEVGDTPKDRALFNGAQKLFGMIITIGQSIVYVMTGMYGDPSEMGAGICLLITIQLFVAGLIVLLLDELLQKGYGLGSGISLFIATNICETIVWKAFSPTTVNTGRGMEFEGAIIALFHLLATRTDKVRALREAFYRQNLPNLMNLIATIFVFAVVIYFQGFRVDLPIKSARYRGQYNTYPIKLFYTSNIPIILQSALVSNLYVISQMLSARFSGNLLVSLLGTWSDTSSGGPARAYPVGGLCYYLSPPESFGSVLEDPVHAVVYIVFMLGSCAFFSKTWIEVSGSSAKDVAKQLKEQQMVMRGHRETSMVHELNRYIPTAAAFGGLCIGALSVLADFLGAIGSGTGILLAVTIIYQYFEIFVKEQSEVGSMGALLF
B4: TUBA1C (protein)
chain: MTAWFNGVEELGRDECFVCLELDPSNGSFLNAKLYISNWILIYFTRTLQLPAPFNTCTSSKSRGEPGCDSKRECISIHVGQAGVQIGNACWELYCLEHGIQPDGQMPSDKTIGGGDDSFNTFFSETGAGKHVPRAVFVDLEPTVIDEVRTGTYRQLFHPEQLITGKEDAANNYARGHYTIGKEIIDLVLDRIRKLADQCTGLQGFLVFHSFGGGTGSGFTSLLMERLSVDYGKKSKLEFSIYPAPQVSTAVVEPYNSILTTHTTLEHSDCAFMVDNEAIYDICRRNLDIERPTYTNLNRLISQIVSSITASLRFDGALNVDLTEFQTNLVPYPRIHFPLATYAPVISAEKAYHEQLTVAEITNACFEPANQMVKCDPRHGKYMACCLLYRGDVVPKDVNAAIATIKTKRTIQFVDWCPTGFKVGINYQPPTVVPGGDLAKVQRAVCMLSNTTAVAEAWARLDHKFDLMYAKRAFVHWYVGEGMEEGEFSEAREDMAALEKDYEEVGADSADGEDEGEEY
B5: EMC3 (protein)
chain: AGPELLLDSNIRLWVVLPIVIITFFVGMIRHYVSILLQSDKKLTQEQVSDSQVLIRSRVLRENGKYIPKQSFLTRKYYFNNPEDGFFKKTKRKVVPPSPMTDPTMLTDMMKGNVTNVLPMILIGGWINMTFSGFVTTKVPFPLTLRFKPMLQQGIELLTLDASWVSSASWYFLNVFGLRSIYSLILGQDNAADQSRMMQEQMTGAAMAMPADTNKAFKTEWEALELTDHQWALDDVEEELMAKDLHFEGMFKKELQTSIF
B6: DNAJC3 (protein)
chain: GVNADVEKHLELGKKLLAAGQLADALSQFHAAVDGDPDNYIAYYRRATVFLAMGKSKAALPDLTKVIQLKMDFTAARLQRGHLLLKQGKLDEAEDDFKKVLKSNPSENEEKEAQSQLIKSDEMQRLRSQALNAFGSGDYTAAIAFLDKILEVCVWDAELRELRAECFIKEGEPRKAISDLKAASKLKNDNTEAFYKISTLYYQLGDHELSLSEVRECLKLDQDHKRCFAHYKQVKKLNKLIESAEELIRDGRYTDATSKYESVMKTEPSIAEYTVRSKERICHCFSKDEKPVEAIRVCSEVLQMEPDNVNALKDRAEAYLIEEMYDEAIQDYETAQEHNENDQQIREGLEKAQRLLKQSQKRDYYKILGVKRNAKKQEIIKAYRKLALQWHPDNFQNEEEKKKAEKKFIDIAAAKEVLSDPEMRKKFDDGEDPLDAESQQGGGGNPFHRSWNSWQGFNPFSSGGPFRFKFHFN
B7: STT3A (protein)
chain: MTKFGFLRLSYEKQDTLLKLLILSMAAVLSFSTRLFAVLRFESVIHEFDPYFNYRTTRFLAEEGFYKFHNWFDDRAWYPLGRIIGGTIYPGLMITSAAIYHVLHFFHITIDIRNVCVFLAPLFSSFTTIVTYHLTKELKDAGAGLLAAAMIAVVPGYISRSVAGSYDNEGIAIFCMLLTYYMWIKAVKTGSICWAAKCALAYFYMVSSWGGYVFLINLIPLHVLVLMLTGRFSHRIYVAYCTVYCLGTILSMQISFVGFQPVLSSEHMAAFGVFGLCQIHAFVDYLRSKLNPQQFEVLFRSVISLVGFVLLTVGALLMLTGKISPWTGRFYSLLDPSYAKNNIPIIASVSEHQPTTWSSYYFDLQLLVFMFPVGLYYCFSNLSDARIFIIMYGVTSMYFSAVMVRLMLVLAPVMCILSGIGVSQVLSTYMKNLDISRPDKKSKKQQDSTYPIKNEVASGMILVMAFFLITYTFHSTWVTSEAYSSPSIVLSARGGDGSRIIFDDFREAYYWLRHNTPEDAKVMSWWDYGYQITAMANRTILVDNNTWNNTHISRVGQAMASTEEKAYEIMRELDVSYVLVIFGGLTGYSSDDINKFLWMVRIGGSTDTGKHIKENDYYTPTGEFRVDREGSPVLLNCLMYKMCYYRFGQVYTEAKRPPGFDRVRNAEIGNKDFELDVLEEAYTTEHWLVRIYKVKDLDNRGLSRT
B8: QIL1 (protein)
chain: MVARVWSLMRFLIKGSVAGGAVYLVYDQELLGPSDKSQAALQKAGEVVPPAMYQFSQYVCQQTGLQIPQLPAPPKIYFPIRDSWNAGIMTVMSALSVAPSKAREYSKEGWEYVKARTK
B9: HEATR2 (protein)
chain: AALGVAEAVAAPHPAEGAETAEAVELSRALSRLLPGLEADSKPGRRRALEALRRALEEPGPAADPTAFQGPWARLLLPRLLRCLSDPAEGCRALAVHLLDLGLRRAARPRDALPRLLPALAARLAGPVPARRPPEACEELRLALVQLLGLAVDLCGAALAPHLDDALRALRCSLLDPFAAVRRESCSCAAALAQATPDHFHMQSESLIGPLMQTISHQHWKVRVAAIEATGAVIHFGNGKSVDDVLSHFAQRLFDDVPQVRRAVASVVGGWLLCLRDRYSFFHKLIPLLLSSLNDEVPEVRQLAASLWEDVGLQWQKENEEDLKDKLDFAPPTPPHYPPHERRPVLGCRELVFRNLSKILPALCHDITDWVVGTRVKSAQLLPVLLLHAEDHATQHLEVVLRTLFQACTDEEAAVVQSCTRSAELVGTFVSPEVFLKLILSTLKKTPSASGLLVLASAMRGCPREALQPHLAAIATELAQAHICQASENDLYLERLLLCVQALVSVCHEDCGVASLQLLDVLLTIVALAGATGLRDKAQETMDSLAMVEGVSSCQDLYRKHIGPLLERVTASHLDWTAHSPELLQFSVIVAQSGPALGEALPHVVPTLRACLQPSQDPQMRLKLFSILSTVLLRATDTINSQGQFPSYLETVTKDILAPNLQWHAGRTAAAIRTAAVSCLWALTSSEVLSAEQIRDVQETLMPQVLTTLEEDSKMTRLISCRIINTFLKTSGGMTDPEKLIRIYPELLKRLDDVSNDVRMAAASTLVTWLQCVKGANAKSYYQSSVQYLYRELLVHLDDPERAIQDAILEVLKEGSGLFPDLLVRETEAVIHKHRSATYCEQLLQHVQAVPATQ
B10: TUBA4A (protein)
chain: MRECISVHVGQAGVQMGNACWELYCLEHGIQPDGQMPSDKTIGGGDDSFTTFFCETGAGKHVPRAVFVDLEPTVIDEIRNGPYRQLFHPEQLITGKEDAANNYARGHYTIGKEIIDPVLDRIRKLSDQCTGLQGFLVFHSFGGGTGSGFTSLLMERLSVDYGKKSKLEFSIYPAPQVSTAVVEPYNSILTTHTTLEHSDCAFMVDNEAIYDICRRNLDIERPTYTNLNRLISQIVSSITASLRFDGALNVDLTEFQTNLVPYPRIHFPLATYAPVISAEKAYHEQLSVAEITNACFEPANQMVKCDPRHGKYMACCLLYRGDVVPKDVNAAIAAIKTKRSIQFVDWCPTGFKVGINYQPPTVVPGGDLAKVQRAVCMLSNTTAIAEAWARLDHKFDLMYAKRAFVHWYVGEGMEEGEFSEAREDMAALEKDYEEVGIDSYEDEDEGEE
B11: BRAT1 (protein)
chain: MDPECAQLLPALCAVLVDPRQPVADDTCLEKLLDWFKTVTEGESSVVLLQEHPCLVELLSHVLKVQDLSSGVLSFSLRLAGTFAAQENCFQYLQQGELLPGLFGEPGPLGRATWAVPTVRSGWIQGLRSLAQHPSALRFLADHGAVDTIFSLQGDSSLFVASAASQLLVHVLALSMRGGAEGQPCLPGGDWPACAQKIMDHVEESLCSAATPKVTQALNVLTTTFGRCQSPWTEALWVRLSPRVACLLERDPIPAAHSFVDLLLCVARSPVFSSSDGSLWETVARALSCLGPTHMGPLALGILKLEHCPQALRTQAFQVLLQPLACVLKATVQAPGPPGLLDGTADDATTVDTLLASKSSCAGLLCRTLAHLEELQPLPQRPSPWPQASLLGATVTVLRLCDGSAAPASSVGGHLCGTLAGCVRVQRAALDFLGTLSQGTGPQELVTQALAVLLECLESPGSSPTVLKKAFQATLRWLLSSPKTPGCSDLGPLIPQFLRELFPVLQKRLCHPCWEVRDSALEFLTQLSRHWGGQADFRCALLASEVPQLALQLLQDPESYVRASAVTAMGQLSSQGLHAPTSPEHAEARQSLFLELLHILSVDSEGFPRRAVMQVFTEWLRDGHADAAQDTEQFVATVLQAASRDLDWEVRAQGLELALVFLGQTLGPPRTHCPYAVALPEVAPAQPLTEALRALCHVGLFDFAFCALFDCDRPVAQKSCDLLLFLRDKIASYSSLREARGSPNTASAEATLPRWRAGEQAQPPGDQEPEAVLAMLRSLDLEGLRSTLAESSDHVEKSPQSLLQDMLATGGFLQGDEADCY

tested on: SLC16A11; assay: SLC16A11 protein-protein interaction study (immunoprecipitation, quantitative mass spectrometry); parameters: species or system human; settings: putative SLC16A11^REF interaction partners; immunoprecipitation from HEK293T cells vs empty vector control; Blandt-Altman

In order of falling “BA log fold change” value:
1. B3  1.84
2. B1  1.69
3. B5  1.65
4. B7  1.27
5. B6  1.22
6. B8  1.08
7. B2  1.05
8. B4  1.04
9. B11  1.04
10. B9  1.03
11. B10  1.02
